In US20230235054A1 (BIOATLA, published 2023):

T1: cynoNectin4-mFc (cyno, UniProt A0A2K5WES1 32-349)
T1 construct: Immobilized on the SPR chip; also called cyanoNectin4; not shown: mFc (mouse Fc)
T1 sequence: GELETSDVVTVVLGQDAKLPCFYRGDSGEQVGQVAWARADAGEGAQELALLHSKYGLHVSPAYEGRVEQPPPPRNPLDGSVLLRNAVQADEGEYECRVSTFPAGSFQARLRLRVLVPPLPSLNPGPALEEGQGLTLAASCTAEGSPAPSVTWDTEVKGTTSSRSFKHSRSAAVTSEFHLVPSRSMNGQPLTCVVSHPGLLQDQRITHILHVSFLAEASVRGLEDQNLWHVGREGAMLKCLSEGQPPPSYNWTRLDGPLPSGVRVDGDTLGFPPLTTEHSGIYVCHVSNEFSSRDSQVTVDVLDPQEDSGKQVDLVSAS

T2: RatNectin4-His (rat, UniProt D3ZET1 31-348)
T2 construct: Immobilized on the SPR chip; not shown: His tag
T2 sequence: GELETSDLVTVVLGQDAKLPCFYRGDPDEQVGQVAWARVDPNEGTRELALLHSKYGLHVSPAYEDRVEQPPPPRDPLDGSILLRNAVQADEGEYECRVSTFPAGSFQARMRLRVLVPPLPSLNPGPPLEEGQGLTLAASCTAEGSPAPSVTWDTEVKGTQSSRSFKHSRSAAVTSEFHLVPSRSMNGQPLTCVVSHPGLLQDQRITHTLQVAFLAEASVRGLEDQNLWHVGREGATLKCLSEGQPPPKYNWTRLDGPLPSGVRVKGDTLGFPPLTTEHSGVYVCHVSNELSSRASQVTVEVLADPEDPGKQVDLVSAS

T3: huNectin4-His (human, UniProt Q96NY8 32-349)
T3 construct: Immobilized on the SPR chip; also called humanNectin4; human Nectin4; not shown: His tag
T3 sequence (looked up): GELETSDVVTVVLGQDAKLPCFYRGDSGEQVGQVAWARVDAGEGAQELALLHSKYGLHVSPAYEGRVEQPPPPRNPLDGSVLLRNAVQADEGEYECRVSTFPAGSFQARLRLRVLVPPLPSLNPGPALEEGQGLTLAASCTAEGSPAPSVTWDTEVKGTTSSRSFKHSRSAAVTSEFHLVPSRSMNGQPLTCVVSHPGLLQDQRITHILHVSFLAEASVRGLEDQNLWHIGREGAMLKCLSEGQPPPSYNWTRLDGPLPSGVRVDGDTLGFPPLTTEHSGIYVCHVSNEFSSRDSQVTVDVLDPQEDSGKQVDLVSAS


Assays:
[1] = molecular target: T1, cynoNectin4-mFc; test: SPR, cynoNectin4-mFc immobilized, pH 6.5
Method: (§1) Binding kinetics of anti-Nectin4 antibodies were measured by surface plasmon resonance using a SPR2/4 instrument (Sierra Sensors, Hamburg, Germany) and flat amine sensor chips. The SPR sensor contained four flow cells (FC1-FC4), each of which was addressed individually or in groups. huNectin4-His was immobilized in FC2, and cynoNectin4-mFc in FC4. No protein was immobilized in FC1 and FC3 which were used as control surfaces for FC2 and FC4, respectively.
(§2) All injections were done at a flow rate of 25 μL/min at 25° C. The sensor surface was activated with 1-ethyl-3-(3-dimethylaminopropyl)-carbodiimide (EDC) and N-hydroxysuccinimide (NHS) (200 mM/50 mM) for 480 seconds. HuNectin4-His (2 μg/mL in 10 mM NaAc, pH4.5) was injected for 480s and the surface was inactivated by injecting 1M ethanolamine-HCl for 480s. CynoNectin4 was immobilized using the same conditions as described for huNectin4-His, except that the cynoNectin4 was diluted into 10 mM NaAc buffer having pH 5.0. The control surface was activated and deactivated using the same conditions, but without injecting protein. PBST buffer (PBS pH 7.4 with 0.05% TWEEN20™) was used as running buffer for the surface preparation. The running solution was switched to PBST with 30 mM sodium bicarbonate with the pH adjusted as indicated in the figures before the analyte injections. The instrument was equilibrated with the running solution for one hour before the first analyte injection.
(§3) The off-rate was measured for 360s. The chip surface was regenerated after each cycle of interaction analysis by injecting 6 μL of 10 mM glycine (pH 2.0). Flow cells 1 and 3 without immobilized protein were used as control surfaces for reference subtraction.

[2] = molecular target: T2, RatNectin4-His; test: SPR, RatNectin4-His immobilized, pH 7.4
Method: as §2, §3
(§4) In addition, data with buffer only as analyte (0 nM analyte) was subtracted from each run. Double subtracted data was fitted with the provided analysis software Analyzer R2 (Sierra Sensors) using a 1:1 binding model. A molecular weight of 150 kDa was used to calculate the molar concentrations of the analytes. RatNectin4-His was immobilized in FC3 using the same conditions as described for cynoNectin4.

[3] = molecular target: T3, huNectin4-His; test: SPR, huNectin4-His immobilized, pH 7.4
Method: as §1, §2, §3

[4] = molecular target: T2, RatNectin4-His; test: SPR, RatNectin4-His immobilized, pH 6.0
Method: as §2, §3, §4

| Binder | Kd [1] [nM] | Kd [2] [nM] | Kd [3] [nM] | Kd [4] [nM] | koff [1] [s⁻¹] | kon [1] [M⁻¹ s⁻¹] | koff [2] [s⁻¹] | kon [2] [M⁻¹ s⁻¹] | koff [3] [s⁻¹] | kon [3] [M⁻¹ s⁻¹] | koff [4] [s⁻¹] | kon [4] [M⁻¹ s⁻¹] |
| --- | --- | --- | --- | --- | --- | --- | --- | --- | --- | --- | --- | --- |
| BAP-143-wildtype (antibody, V domains shown, 150 kDa used in SPR; also called BAP143-00-00; benchmark (BM)) VH: EVQLVESGGGLVQPGGSLRLSCAASGFTFSSYNMNWVRQAPGKGLEWVSYISSSSSTIYYADSVKGRFTISRDNAKNSLSLQMNSLRDEDTAVYYCARAYYYGMDVWGQGTTVTVSS VL: DIQMTQSPSSVSASVGDRVTITCRASQGISGWLAWYQQKPGKAPKFLIYAASTLQSGVPSRFSGSGSGTDFTLTISSLQPEDFATYYCQQANSFPPTFGGGTKVEIK | 0.209 | 0.135 | 0.127 | 0.175 |  |  |  |  |  |  |  |  |
| BAP-143-06-24-16 (antibody, V domains shown, Used as a conjugate with a linker payload (CAB ADC)) VH: EVQLVQSGAEVKKPGATVKISCKVSGFTFSSYNMNWIRQSPSRGLEWLGYISSSSSTIYYADSVKGRFTISRDNSKNTLYLQMNSLRAEDTAVYYCARAYYYGDDVWGQGTLVTVSS VL: DIQMTQSPSSVSASVGDRVTITCHASQGISGWLAWYQQKPGKAPKFLIYAASTLQSGVPSRFSGSGSGTDFTLTISSLQPEDFATYYCQQANSFPPTFGGGTKVEIK | 0.0534 | 0.171 | 0.0067 | 0.104 | 8.99e-05 | 1.68e+06 | 0.000178 | 1.04e+06 | 5.21e-06 | 778000 | 0.000635 | 6.1e+06 |
| BAP-143-00-01 (antibody, V domains shown, Used as a conjugate with a linker payload (CAB ADC)) VH: EVQLVESGGGLVQPGGSLRLSCAASGFTFSSYNMNWVRQAPGKGLEWVSYISSSSSTIYYADSVKGRFTISRDNAKNSLSLQMNSLRDEDTAVYYCARAYYYGMDVWGQGTTVTVSS VL: DIQMTQSPSSVSASVGDRVTITCRASQGISGWEAWYQQKPGKAPKFLIYAASTLQSGVPSRFSGSGSGTDFTLTISSLQPEDFATYYCQQANSFPPTFGGGTKVEIK | 1.88 | 2.42 | 1.81 | 1.17 | 0.000859 | 457000 | 0.000875 | 361000 | 0.000517 | 285000 | 0.00159 | 1.36e+06 |

Now from value to binder:

| Kd [1] [nM] | Kd [2] [nM] | Kd [3] [nM] | Kd [4] [nM] | koff [1] [s⁻¹] | kon [1] [M⁻¹ s⁻¹] | koff [2] [s⁻¹] | kon [2] [M⁻¹ s⁻¹] | koff [3] [s⁻¹] | kon [3] [M⁻¹ s⁻¹] | koff [4] [s⁻¹] | kon [4] [M⁻¹ s⁻¹] | Binder |
| --- | --- | --- | --- | --- | --- | --- | --- | --- | --- | --- | --- | --- |
| 0.163 | 1.94 | 0.17 | 0.154 | 0.00026 | 1.6e+06 | 0.000261 | 135000 | 2.01e-05 | 119000 | 0.000394 | 2.57e+06 | BAP-143-06-33-16 (antibody, V domains shown, Used as a conjugate with a linker payload (CAB ADC)) VH: EVQLVQSGAEVKKPGATVKISCKVSGFTFSSYNMNWIRQSPSRGLEWLGYISSSSSTIYYADSVKGRFTISRDNSKNTLYLQMNSLRAEDTAVYYCARAYYYGDDVWGQGTLVTVSS VL: DIQMTQSPSSVSASVGDRVTITCRASQGISGWEAWYQQKPGKAPKFLIYAASTLQSGVPSRFSGSGSGTDFTLTISSLQPEDFATYYCQQANSFPPTFGGGTKVEIK |
| 1.6 | 1.31 | 0.925 | 0.738 | 0.000876 | 549000 | 0.000731 | 557000 | 0.000401 | 434000 | 0.0012 | 1.62e+06 | BAP-143-07-03-12 (antibody, V domains shown, Used as a conjugate with a linker payload (CAB ADC)) VH: EVQLVESGGGLVQPGGSLRLSCAASGFTFSSYNMNWVRQAPGKGLEWVSYISSSSSTIYYADSVKGRFTISRDNAKNSLSLQMNSLRDEDTAVYYCARAYYYGMDKWGQGTTVTVSS VL: DIQMTQSPSSVSASVGDRVTITCRASQGISGWEAWYQQKPGKAPKFLIYAASTLQSGVPSRFSGSGSGTDFTLTISSLQPEDFATYYCQQANSFPPTFGGGTKVEIK |
